Test results: the RNAGym collection of RNA variant scans (doi:10.1101/gr.219683.116)

B1: mRNA-splicing (parent)
chain: AGUUGCUGCUGGGAGCUCCAGCACAGUGAAAUGGACAGAAGGGCAGAGCAA

Variants of: B1
Test: exon inclusion enrichment index; higher = more inclusion; WT1 exon 5 minigene, HEK293

Variant | exon inclusion enrichment index
AGUUCACACAGGGAGCUCCAGCACAGUGAAAUGGAAGGAAGGGCAGAGCAA [G5C C6A U7C G8A U10A C36A A37G] | 0.0468
AGUUCACACAGGGAGCUCCAGCACAGUGAAAUGGAAUGAAGGGCAGAGCAA [G5C C6A U7C G8A U10A C36A A37U] | 0.0382
AGUUCACACAGGGAGCUCCAGCACAGUGAAAUGGAACGAAGGGCAGAGCAA [G5C C6A U7C G8A U10A C36A A37C] | 0.146
AGUUCACACAGGGAGCUCCAGCACAGUGAAAUGGACAGAAGGGAAGAGCAA [G5C C6A U7C G8A U10A C44A] | 0.477
AGUUCACACAGGGAGCUCCAGCACAGUGAAAUGGACAGAAGGGGAGAGCAA [G5C C6A U7C G8A U10A C44G] | 0.198
AGUUCACACAGGGAGCUCCAGCACAGUGAAAUGGACAGAAGGGUAGAGCAA [G5C C6A U7C G8A U10A C44U] | 0.0254
AGUUCACACAGGGAGCUCCAGCAGAGUGAAAUGGACAGAAGGGCAGAGCAA [G5C C6A U7C G8A U10A C24G] | 0.119
AGUUCACACAGGGAGCUCCAGCAUAGUGAAAUGGACAGAAGGGCAGAGCAA [G5C C6A U7C G8A U10A C24U] | 0.0213
AGUUCACACAGGGAGCUCCAGCACACCGAAAUGGACAGAAGGGCAGAGCAA [G5C C6A U7C G8A U10A G26C U27C] | 0.54
AGUUCACACAGGGAGCUCCAGCACACGGAAAUGGACAGAAGGGCAGAGCAA [G5C C6A U7C G8A U10A G26C U27G] | 0.537
AGUUCACACAGGGAGCUCCAGCACACAGAAAUGGACAGAAGGGCAGAGCAA [G5C C6A U7C G8A U10A G26C U27A] | 0.076
AGUUCACACAAGGAGCUCCAGCACAGUGAAAUGGACAGAAGGGCAGAGCAA [G5C C6A U7C G8A U10A G11A] | 0.832
AGUUCACACACGGAGCUCCAGCACAGUGAAAUGGACAGAAGGGCAGAGCAA [G5C C6A U7C G8A U10A G11C] | 0.99
AGUUCACACAUGGAGCUCCAGCACAGUGAAAUGGACAGAAGGGCAGAGCAA [G5C C6A U7C G8A U10A G11U] | 0.955
AGUUCACACAGGGAGCUCCAGCAAGGUGAAAUGGACAGAAGGGCAGAGCAA [G5C C6A U7C G8A U10A C24A A25G] | 0.156
AGUUCACACAGGGAGCUCCAGCAAUGUGAAAUGGACAGAAGGGCAGAGCAA [G5C C6A U7C G8A U10A C24A A25U] | 0.146
AGUUCACACAGGGAGCUCCAGCACAGUGAAAUGGAGUGAAGGGCAGAGCAA [G5C C6A U7C G8A U10A C36G A37U] | 0.0414
AGUUCACACAGGGAGCUCCAGCACAGUGAAAUGGAGGGAAGGGCAGAGCAA [G5C C6A U7C G8A U10A C36G A37G] | 0.00352
AGUUCACACAGGGAGCUCCAGCACAGUGAAAUGGAGCGAAGGGCAGAGCAA [G5C C6A U7C G8A U10A C36G A37C] | 0.0273
AGUUCACACAGGGAGCUCCAGCAUUGUGAAAUGGACAGAAGGGCAGAGCAA [G5C C6A U7C G8A U10A C24U A25U] | 0.151
AGUUCACACAGGGAGCUCCAGCAUGGUGAAAUGGACAGAAGGGCAGAGCAA [G5C C6A U7C G8A U10A C24U A25G] | 0.334
AGUUCACACAGGGAGCUCCAGCAUCGUGAAAUGGACAGAAGGGCAGAGCAA [G5C C6A U7C G8A U10A C24U A25C] | 0.98
AGUUCACACAGGGAGCUCCAGCACAGUGAAAUGGAAAGAAGGGCAGAGCAA [G5C C6A U7C G8A U10A C36A] | 0.0935
AGUUCACACAGGGAGCUCCAGCACAGUGAAAUGGAUAGAAGGGCAGAGCAA [G5C C6A U7C G8A U10A C36U] | 0.0372
AGUUCACACAGGGAGCUCCAGCACAGUGAAAUGGAGAGAAGGGCAGAGCAA [G5C C6A U7C G8A U10A C36G] | 0.0563
AGUUCACACAGGGAUGUCCAGCACAGUGAAAUGGACAGAAGGGCAGAGCAA [G5C C6A U7C G8A U10A G15U C16G] | 0.018

Variant | exon inclusion enrichment index
AGUUCACACAGGGAUUUCCAGCACAGUGAAAUGGACAGAAGGGCAGAGCAA [G5C C6A U7C G8A U10A G15U C16U] | 0.0659
AGUUCACACAGGGAUAUCCAGCACAGUGAAAUGGACAGAAGGGCAGAGCAA [G5C C6A U7C G8A U10A G15U C16A] | 0.0461
AGUUCACACAGGGAGCUCCAGCACACUGAAAUGGACAGAAGGGCAGAGCAA [G5C C6A U7C G8A U10A G26C] | 0.141
AGUUCACACAGGGAGCUCCAGCACAAUGAAAUGGACAGAAGGGCAGAGCAA [G5C C6A U7C G8A U10A G26A] | 0.156
AGUUCACACAGGCAGCUCCAGCACAGUGAAAUGGACAGAAGGGCAGAGCAA [G5C C6A U7C G8A U10A G13C] | 0.0242
AGUUCACACAGGUAGCUCCAGCACAGUGAAAUGGACAGAAGGGCAGAGCAA [G5C C6A U7C G8A U10A G13U] | 0.00463
AGUUCACACAGGAAGCUCCAGCACAGUGAAAUGGACAGAAGGGCAGAGCAA [G5C C6A U7C G8A U10A G13A] | 0.277
AGUUCACACAGGGAGCUCCAGCACAAGGAAAUGGACAGAAGGGCAGAGCAA [G5C C6A U7C G8A U10A G26A U27G] | 0.258
AGUUCACACAGGGAGCUCCAGCACAAAGAAAUGGACAGAAGGGCAGAGCAA [G5C C6A U7C G8A U10A G26A U27A] | 0.131
AGUUCACACAGGGAGCUCCAGCACAACGAAAUGGACAGAAGGGCAGAGCAA [G5C C6A U7C G8A U10A G26A U27C] | 0.555
AGUUCACACAGGCGGCUCCAGCACAGUGAAAUGGACAGAAGGGCAGAGCAA [G5C C6A U7C G8A U10A G13C A14G] | 0.278
AGUUCACACAGGCUGCUCCAGCACAGUGAAAUGGACAGAAGGGCAGAGCAA [G5C C6A U7C G8A U10A G13C A14U] | 0.136
AGUUCACACAGGCCGCUCCAGCACAGUGAAAUGGACAGAAGGGCAGAGCAA [G5C C6A U7C G8A U10A G13C A14C] | 0.145
AGUUCACACAGGGAGCUCCAGCACAGUGAAAUGGAUUGAAGGGCAGAGCAA [G5C C6A U7C G8A U10A C36U A37U] | 0.0725
AGUUCACACAGGGAGCUCCAGCACAGUGAAAUGGAUGGAAGGGCAGAGCAA [G5C C6A U7C G8A U10A C36U A37G] | 0.111
AGUUCACACAGGGAGCUCCAGCACAGUGAAAUGGAUCGAAGGGCAGAGCAA [G5C C6A U7C G8A U10A C36U A37C] | 0.0938
AGUUCACACAGCGAGCUCCAGCACAGUGAAAUGGACAGAAGGGCAGAGCAA [G5C C6A U7C G8A U10A G12C] | 0.365
AGUUCACACAGUGAGCUCCAGCACAGUGAAAUGGACAGAAGGGCAGAGCAA [G5C C6A U7C G8A U10A G12U] | 0.0134
AGUUCACACAGAGAGCUCCAGCACAGUGAAAUGGACAGAAGGGCAGAGCAA [G5C C6A U7C G8A U10A G12A] | 0.208
AGUUCACACAGUAAGCUCCAGCACAGUGAAAUGGACAGAAGGGCAGAGCAA [G5C C6A U7C G8A U10A G12U G13A] | 0.0173
AGUUCACACAGUCAGCUCCAGCACAGUGAAAUGGACAGAAGGGCAGAGCAA [G5C C6A U7C G8A U10A G12U G13C] | 0.0217
AGUUCACACAGUUAGCUCCAGCACAGUGAAAUGGACAGAAGGGCAGAGCAA [G5C C6A U7C G8A U10A G12U G13U] | 0.00142
AGUUCACACAGGGACUUCCAGCACAGUGAAAUGGACAGAAGGGCAGAGCAA [G5C C6A U7C G8A U10A G15C C16U] | 0.0687
AGUUCACACAGGGACGUCCAGCACAGUGAAAUGGACAGAAGGGCAGAGCAA [G5C C6A U7C G8A U10A G15C C16G] | 0.0998
AGUUCACACAGGGACAUCCAGCACAGUGAAAUGGACAGAAGGGCAGAGCAA [G5C C6A U7C G8A U10A G15C C16A] | 0.0594
